T1: human p55 TNF receptor (human, UniProt P19438 30-211, limits assumed)
T1 construct: also called TNF Receptor 1; TNFR1
T1 sequence (looked up): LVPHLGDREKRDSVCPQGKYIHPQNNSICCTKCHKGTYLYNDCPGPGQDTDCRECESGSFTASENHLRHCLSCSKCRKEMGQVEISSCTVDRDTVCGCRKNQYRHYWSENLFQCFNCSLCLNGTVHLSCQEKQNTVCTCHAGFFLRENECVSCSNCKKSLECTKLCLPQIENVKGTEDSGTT


Legend:
human serum albumin = target: T2, human serum albumin (human, UniProt P02768 25-609); assay: not stated; IC50/Kd, called Kd in paragraph 434
T2 construct: also called HSA

human p55 TNF receptor = target: T1, human p55 TNF receptor

Binder | Kd (human serum albumin) | Kd (human p55 TNF receptor)
TAR2h10-55 (other, expressed from pDOM5; also called TAR2h10-55 dAb) VH: STEVQLLESGGGLVQPGGSLRLSCAASGFPFEWYWMGWVRQAPGKGLEWVSAISGSGDSTYYADSVKGRFTISRDNSKNTLYQQMNSLRAEDAAVYYCAKVKLGGGPNFGYRGQGTLVTVSSAAAEQKLISEEDLN |  | 10 to 15 nM
TAR3h-23 (other, anti-HSA VH dAb expressed from pDOM5) VH: STEVQLLESGGGLVQPGGSLRLSCAASGFTFYDYNMSWVRQAPGKGLEWVSTITHTGGVTYYADSVKGRFTISRDNSKNTLYLQMNSLRAEDTAVYYCAKQNPSYQFDYWGQGTLVTVSSAAAEQKLISEEDLN | 800 nM | 

Results, then the binder that gave them:

Kd (human serum albumin) | Kd (human p55 TNF receptor) | Binder
50 nM |  | TAR3h-22 (other, anti-HSA VH dAb expressed from pDOM5) VH: STEVQLLESGGGLVQPGGSLRLSCAASGFTFSKYWMSWVRQAPGKGLEWVSSIDFMGPHTYYADSVKGRFTISRDNSKNTLYLQMNSLRAEDTAVYYCAKGRTSMLPMKGKFDYWGQGTLVTVSSAAAEQKLISEEDLN
200 nM |  | TAR3h-26 (other, anti-HSA VH dAb expressed from pDOM5) VH: STEVQLLESGGGLVQPGGSLRLSCTASGFTFDEYNMSWVRQAPGKGLEWVSTILPHGDRTYYADSVKGRFTISRDNSKNTLYLQMNSLRAEDTAVYYCAKQDPLYRFDYWGQGTLVTVSSAAAEQKLISEEDLN
